Test results published in the supplement of paper PMC9170038.

System: K4 kissing-loop RNA reporter
Assay: apparent KD of K4 kissing-loop reporter; higher = weaker reporter binding
Conditions: Eterna round: R107
Protocol: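 RNA-MaP round R107: designed RNA switches with theophylline, tryptophan, arginine or FMN aptamers are transcribed on-chip within common flanks. They are titrated with a labelled K4 kissing-loop RNA reporter in RNA-MaP buffer (100 mM Tris pH 7.5, 80 mM KCl, 4 mM MgCl2), without ligand or with the indicated ligand. Median apparent KD per design.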

[1] = input ligand: theophylline 20 uM
[2] = input ligand: tryptophan 2.4 mM
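Further: bound reporter read as fluorescence of individual clusters on recovered sequencing chips by microscopy, with normalized cluster intensities fitted with a binding model.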

Sequence | apparent KD of K4 kissing-loop reporter (input ligand: FMN 200 uM) | apparent KD of K4 kissing-loop reporter (input ligand: arginine 13.2 mM) | apparent KD of K4 kissing-loop reporter (input ligand: none) | apparent KD of K4 kissing-loop reporter [1] | apparent KD of K4 kissing-loop reporter [2]
UGAUAGGACAGAAGGAGCGGAAGUGAUGUUUCCAAAAGGAAAGGUCGACAAAGUCGACCCUUCCAGGUAGGUCGCUGUCCUAUCU [ArgBX 8 #Palindromic #SwitchBubble #StaticStem] | 0.0882 µM | 0.0905 µM | 0.0829 µM | 0.0849 µM | 0.0815 µM
CGAACCUCCAAAGGAUAUCUCGUUUAGUGAUGUUUUGCGUAGUAUCAGGAUAGAAUAUUGAUUCAGAGAGAAGGUUGACGUUGGU [theeternabot_exclusion_KL_FMN_B_14] | 0.733 µM | 0.428 µM | 0.684 µM | 0.511 µM | 0.537 µM
UUUUUGGAGAAUUAUAGUGAUGUUAUGAAGGAGGAUAUCUAAAGAUGGAGAAGGUUUAAUAGUUAAGGGAUGGAGGGUGGGUGGG [ExFMNA.Q] | 0.372 µM | 0.18 µM | 0.32 µM | 0.208 µM | 0.229 µM
UACUUAUUUUUUAACUUAAAUUUUUCAGAAGGAGCGUGAUCAUUCACAGGUAGGUCGCUGAACUAGUGAUGUUAGUUUUAAUUUU [JR_Nu_ExcArginiA_Sub024] | 0.0629 µM | 0.115 µM | 0.0639 µM | 0.104 µM | 0.0565 µM
AGUGAUGUUGUGUUAUGCUAGGGAAGUGAUCGAGGACCGGUACGGCCGCCACUCGAGUGAUGAGUGAGUGAUGUUUGUUUAGGGA [sdsmullin] | 1.1 µM | 0.48 µM | 0.961 µM | 0.844 µM | 0.49 µM
AAUAAAAUCACGGCCGCCACUGAUGCUAAUAUUGGCAGUGAUGUUGCUAUGUAUAUUUUAUUUGACAGGACCGGGUGAAUAUUUA [#24 K4 Tryptophan B Exclusion] | 0.224 µM | 0.198 µM | 0.245 µM | 0.263 µM | 0.137 µM
AUGCAUGAAAGUGAUGUUUUCAGUAAUGGAAAGGAUAUGCGCUGGUGCAGAAGGUUCUAAAGUGCAUCCAACAACUGGGUAGGCC [theeternabot_sameState_KL_FMN_A_36] | 0.218 µM | 0.316 µM | 0.322 µM | 0.273 µM | 0.31 µM
AACUGUCAAGGACAACAUUACUGCAGUGAUACCAGCAUCGAAAGAUGCCCUUGGCAGCACCAACUUGCAGUGAUGUUGCAAGUAA [BrourdMod 5 - Jieux - Exclusion - Theophylline A] | 0.241 µM | 0.203 µM | 0.216 µM | 0.188 µM | 0.22 µM
AUGCGACGUGCGGCCGCCACUCGGAUGCGAGUGAUGUUCGCGGGCCGGCCGCAAGGCCGGCAUUCGAGGACCGGGCAUCGGUGUA [#2 Same State - Tryptophan B Attempt #1 (HarryS)] | 0.42 µM | 0.496 µM | 0.546 µM | 0.493 µM | 0.116 µM
UAUUAAUUGACGGCCGCCACUAUUGUGAUUUAUUUGUUUGAGUGAUGUUUUGAUGUUUGAUUUUGUAGGACCGGGUUAUGUGUUA [zwzcmullin] | 0.918 µM | 0.768 µM | 0.954 µM | 0.816 µM | 0.711 µM
CUUGGAAGGACGGCCGCCACUCGACAGUGAUGUUGUCCGAGUUGGUAACGCAGUGAUGUUGUGUCGAGGACCGGGUCCUAGGAAU [Exclusion Tryptophan B GF 26] | 0.199 µM | 0.149 µM | 0.185 µM | 0.174 µM | 0.147 µM
CGCCGAAAGGCGAGCGCUCCCACUCCGGAAGGAGCGCCCGAAAGGGCAGGUAGGUCGCCGGAGUGAUGUUCCGGUGGAGGGCUCG [#2 Exclusion - Arginine A Attempt #30 (Inspired by Omei)] | 0.177 µM | 0.167 µM | 0.817 µM | 0.212 µM | 0.296 µM
AAGGUCACCACUACAGUGAUGUUGUAGGAGCAGGAUAUGCAGAAAUGCAGAAGGGCUCGCUCCAGGUGACCGAAUGAAACAUUCA [Omei KL FMN A SS A v4] | 0.217 µM | 0.341 µM | 0.382 µM | 0.325 µM | 0.381 µM
AGGAUCGAAGAUCCAGCAGUCAAGCAAUACCGAGGACCGGUACGGCCGCCACUCGGAGUGAUGUUCCGAAGACUGCAAAAUAAAA [#SwitchBubble 8] | 0.64 µM | 1.05 µM | 0.955 µM | 0.592 µM | 0.0862 µM
CAUAGGAAACUAUGUUUCUCUCUUACUGAAGGAGCGCGUGAAAACGCAGGUAGGUCGCAGAAUUUGAGAGUGAUGUUCUCAUUAA [Ex Arginine A K4 14] | 0.119 µM | 0.211 µM | 0.175 µM | 0.201 µM | 0.127 µM
AGGUUUUGAUUAGGAUAUGCACUGAGGAGGAGAAUAUAGUGAUGUUAUAUAAGAGGAAGUAGUAGAGUAGAAGGGAUUGAGGUUU [SSFMNB.S] | 0.208 µM | 0.167 µM | 0.224 µM | 0.21 µM | 0.158 µM
CCUAUCUCAUACGAUACCAGUCAAUGAUCUUUGAUCAAUGCCAUCACCGAGUGAUGUUCGGACCCUUGGCAGCGUAUGGGAUAGG [whbob_Ex_Theo_B_sa102] | 0.267 µM | 0.212 µM | 0.269 µM | 0.364 µM | 0.251 µM
AGCUCAGCGUGACUCGAUAAGAGUCACAAACGAGGACCGGUACGGCCGCCACUCGAAAUAAAGGGAGUGAUGUUCUCGCUGAGCA [#SwitchBubble 4 #StaticStem #K4Late] | 0.641 µM | 0.3 µM | 0.37 µM | 0.274 µM | 0.625 µM
UGACUGGACUGAAGGAGCGCGCGAGACAAAGUCUCGAACUGGUAGUGAUGUUAUCAAAUAACGCAGGUAGGUCGCAGUCUAGUCU [ArgBS 12 #SwitchBubble #StaticStem] | 0.251 µM | 0.167 µM | 0.255 µM | 0.193 µM | 0.188 µM
UGUGGAGAAUAUGAUACCAGCAGAGAGAGAGAGGAAGUAUAGUGAUGUUAUAUGAGAGAAUGCCCUUGGCAGCAUAAGAAGAAGG [SSTheophylB.C] | 0.144 µM | 0.119 µM | 0.14 µM | 0.216 µM | 0.192 µM
GGUAGCUAGGCAGGAUAUAGCUAGUGGAGUGAUGUUCCACCAUACACGAGUGAUGUUCGUAACCUGCUAGAAGGGCCUAGCUACC | 0.114 µM | 0.125 µM | 0.144 µM | 0.135 µM | 0.138 µM

Sequence | apparent KD of K4 kissing-loop reporter (input ligand: FMN 200 uM) | apparent KD of K4 kissing-loop reporter (input ligand: arginine 13.2 mM) | apparent KD of K4 kissing-loop reporter (input ligand: none) | apparent KD of K4 kissing-loop reporter [1] | apparent KD of K4 kissing-loop reporter [2]
UAUAGAAACGUCCUAUCAGUAAAAUGGGAAGGAGCGAGGAAGGACUCAGGUAGGUCGCCCAAUAACCUUAGUGAUGUUAAGGAAA [Version 2] | 0.155 µM | 0.128 µM | 0.131 µM | 0.112 µM | 0.122 µM
CGCUUUGCGUCCGGUAGUGAUGUUACCAAGCGAGGACCGGUACGGCCGCCACUCGAGUGACAGACGUACUGGUAUCACCCGCUUU | 0.223 µM | 0.229 µM | 0.248 µM | 0.235 µM | 0.208 µM
AGGGAUGUUAAAGGAUAUAGAAAGUGAUGUUAGAAAGUGAGUGAUGUUGAUGUAAGUGAUGAUAUGUUAGAAGGUUAACAAAACG [abc] | 0.212 µM | 0.111 µM | 0.192 µM | 0.169 µM | 0.144 µM
ACCUCACAGUGAUGUUGUGAGCCGAUAGUGAAGGAUAUUGUAAAGUCAAGAAGGUCAUGUCAGUCACAAAACGUUAAGCCUCGCA [theeternabot_exclusion_KL_FMN_A_19] | 0.275 µM | 0.218 µM | 0.254 µM | 0.266 µM | 0.194 µM
GCAGCUCGGGAGUGAUGUUCUCGUAGAGGAAAGGAUAUGUACUUAGACAGAAGGUUCGCAAUUUGCGGUCUUAAGAUAGAAUAAC [theeternabot_sameState_KL_FMN_A_40] | 0.177 µM | 0.126 µM | 0.207 µM | 0.224 µM | 0.151 µM
AAACAUUGGUCUGAUACCAGCUGAUCGGAAACGAUCUUGCUGGAGUGAUGUUCCAGGAAAAGCCCUUGGCAGCAGACCGAUGAAA [MAT - Same State Theophlline B - Mod of Eli - D24] | 0.938 µM | 0.513 µM | 1.03 µM | 0.715 µM | 0.962 µM
AUUAAUUUCAGAGGAUAUCGUUAUUUUUUUAAGUAUAAUCUAUUUUGCAGUGAUGUUGCUAUUAAUCGAGAAGGCUGAUUUAUAA [JR_SSFMNB_Sub020] | 0.109 µM | 0.14 µM | 0.0753 µM | 0.136 µM | 0.0722 µM
UCACAGUCCAAAGGAUAUUGAGUGCGCGUGCGAUUUAAGCUGAAGCCGUAGCUAGUGAUGUUAGCCCAAGAAGGUUGGUAGCCAG [theeternabot_exclusion_KL_FMN_B_16] | 0.136 µM | 0.128 µM | 0.14 µM | 0.193 µM | 0.115 µM
GGAUAGGACAGAGGAUAUCCUUGAGGCAAGAAACUUGUCUCUAAAAGGAUGAACCUAGUGAUGUUAGGAGAAGGCUGUCCUAUCG [FmnBX 13 - #SwitchBubble #StaticStem #Palindromic] | 0.132 µM | 0.09 µM | 0.0982 µM | 0.085 µM | 0.0959 µM
CGUAGAUACUGAGGAUAUCAGAAAUCUGAUAUCAUCAGAGGUCUGAGUGAUGUUCAGAUGCGACUCUGAGAAGGCAGUAGGAGUC [FMN B Ex t2] | 0.134 µM | 0.107 µM | 0.131 µM | 0.123 µM | 0.115 µM
AAGUGUGUGGCGGCCGCCACUAGAAUCCAGUGAUGUUGGAGAUAUCUCGUAAGAGAUAUCCGCCAUAGGACCGGGCCAUAUAGAA [Same State - Tryptophan B (Freestyle 15)] | 0.981 µM | 0.72 µM | 1.26 µM | 0.413 µM | 0.771 µM
CCAUUCAUUUACGAUACCAGUCUAAUAUAUUGAAUCAAAACCCUCGCCGAGUGAUGUUCGGACCCUUGGCAGCGUCUGCGAGAGG [ddrdkmullin] | 0.596 µM | 0.548 µM | 0.677 µM | 0.543 µM | 0.519 µM
ACGGAUACGCGAGAUACCAGAGGCAUUCGCCAGCGACCAUAAUGUCCCGAGAGUGAUGUUCUCCCUUGGCAGCUCAUGGUUAAUU [theeternabot_exclusion_KL_Theo_B_2] | 0.484 µM | 0.4 µM | 0.468 µM | 0.57 µM | 0.385 µM
UCCAGCAGUACUGAUACCAGACUGCAUGUAGUGAUGUUGCAUAAGGGCAUAGAUGUCUCAGUCCCUUGGCAGCGGUACUGUUGCA [#09 K4 Theophylline B Same State] | 0.379 µM | 0.294 µM | 0.325 µM | 0.251 µM | 0.286 µM
GCGCGUCAUGUCAGCGGUGACACUGUCGAUACCAGUGCCGCAAGGCGCCCUUGGCAGCGACGUGCUGGAGUGAUGUUCCAGCGUU [#2 Exclusion - Theophylline A Attempt #29 (HarryS)] | 0.156 µM | 0.122 µM | 0.161 µM | 0.152 µM | 0.124 µM
CCAUCGCUAUUCGAUACCAGCUACUUAGUGAUGUUAAGUUUUUACCCACUGUAGGUGGGAAGCCCUUGGCAGCGAAUAGUGAUGG [Theophylline B K4 27] | 0.24 µM | 0.203 µM | 0.239 µM | 0.151 µM | 0.209 µM
UUAGAGAUCUCAGGAUAUCAGUGAUGUUGGUUUCCAGAUCUGAGAUAGAAUUCUAUCUCAGAUCAAUGAGAAGGGAGAUCUCAUU [AK4.1 Exc FMN B] | 0.535 µM | 0.128 µM | 0.151 µM | 0.132 µM | 0.123 µM
GGUUCCUCAGUGAUGUUGAGGUGACCUCGGCAGGAUAUAGGCAUUACUAGAAGGGCCAAAAGAACCCUGUGUAGCGACACAGGGA [Beerma] | 0.15 µM | 0.269 µM | 0.329 µM | 0.279 µM | 0.299 µM
AAAGUGUCAGCACGAGUGAUGUUCGACGAUACCAGCCUCGAUAGAGGCCCUUGGCAGCGUAAACCAAGGGCUGGCACAAAAUAAA [#SwitchBubble 6 #K4Early] | 1.05 µM | 0.975 µM | 1.35 µM | 0.439 µM | 1.36 µM
CCAUCGCUAUUCGAUACCAGUCAUAAAAUCUUUGGUUAAAUAAAGGAGUGAUGUUCCCAAGACCCUUGGCAGCGAAUAGUGAUGG [Theophylline B K4 7] | 0.229 µM | 0.227 µM | 0.217 µM | 0.266 µM | 0.213 µM
AUUCUAUGGAGUGAUGUUCCUGUGAUGUCACGAGGACCGGUACGGCCGCCACUCGAUGUAUUGGUUUUUGAAAGAAACAACUGCA [Same State-Tryptophan A] | 0.566 µM | 0.701 µM | 0.842 µM | 0.773 µM | 0.279 µM
